# Read-outs that look alike come from different tables or passages of the source.
# Key:
# [1] = biological target: memGFP (zebrafish | not stated); test: fluorescence cross-correlation spectroscopy
# [2] = biological target: Ror2-mCherry (not stated (xRor2 or zebrafish Ror2 cDNA cloned)); test: fluorescence cross-correlation spectroscopy
# [3] = biological target: Ror2-mCherry (not stated (xRor2 or zebrafish Ror2 cDNA cloned)); test: fluorescence cross-correlation spectroscopy; remark: listed apart in the source
# [4] = biological target: mCherry-xRor2 (not stated (prefix x in xRor2; Xenopus from memory)); test: FRET or BRET
# [5] = biological target: zfRor2-ΔCRD-mCherry (zebrafish); test: fluorescence cross-correlation spectroscopy
# [6] = biological target: Ror2-mCherry (not stated (xRor2 or zebrafish Ror2 cDNA cloned)); test: fluorescence cross-correlation spectroscopy; remark: listed apart in the source
Molecule,Kd [1] [µM],Kd [2] [µM],Kd [3] [µM],FRET efficiency [4] [%],Kd [5] [µM],Kd [6] [µM]
cytosolic mCherry,> 9.3,,,,,
zfWnt5b-GFP (ligand) QLLVVANSWWSLAMNPIQRPEMYIIGAQPLCSQLTGLSQGQRKLCQLYQDHMVYIGEGAKTGIKECQYQFRQRRWNCSTVDNTSVFGRVMHIGSRETAFTYAVSAAGVVNAVSRACREGELSTCGCSRAARPRDLPRDWLWGGCGDNVNYGYRFAREFVDAREREKNYPRGSVEHARTLMNLQNNEAGRMAVYNLANVACKCHGVSGSCSLKTCWLQLADFRRVGEFLKEKYDSAAAMRINRRGKLELVNNRFNPPTGEDLVYIDPSPDYCLRNETTGSLGTQGRLCNKTSEGMDGCELMCCGRGYDQFKTYKHERCHCKFHWCCYVKCKRCTSLVDQFVCK,,0.45,3.56,11.3 to 13,> 6.68,0.311 to 0.476

# — article doi:10.1101/2022.04.07.487468
